Measured values taken from publication PMC13577091.

What was measured:
[1] = target: CcpA;HPr (Streptococcus pneumoniae D39?;Streptococcus pneumoniae D39) (UniProt A0A0H2ZQ65+A0A0H2ZP52); assay: EMSA; settings: Beyotime chemiluminescent EMSA kit, 5X binding buffer (composition and pH not stated), 10 ul, room temperature, 10 min then 20 min with labeled probe, 6% …
[2] = target: CcpA (Streptococcus pneumoniae D39?) (UniProt A0A0H2ZQ65); assay: EMSA; settings: Beyotime chemiluminescent EMSA kit, 5X binding buffer (composition and pH not stated), 10 ul, room temperature, 10 min then 20 min with labeled probe, 6% …

TACACATCTGCTTCTAAAATATTGTTAGAAAACGATTTGACTGTCCTGATCAATTTGTCATGTTCTTATTTCATTTTACTATATTTTTGGTTCGCGGGAAGTCTACTAAGATACTTAAAGATGCAGATAGTGAAAAAAGGTGTAGACATTACCGTAAAAAAGTGATATAATCGTAAGATGTTCAATGTATAGGTGTTAATCATGAGTAGACGTTTTAA (double strand) [Pcps promoter probe]
binding [1]: binds | binding [2]: binds
